# Assay results as given in patent publication US20070110760A1.
# Target: Syk kinase (endogenous, in cell lysates) (not stated (endogenous in murine NMuMG cells and in Bal-17 B cells)) (UniProt P48025)
# Experiment: co-immunoprecipitation in the presence of tyrosine phosphatase inhibitors, NMuMG lysates, three independent experiments
# Syk kinase (endogenous, in cell lysates) (not stated (endogenous in murine NMuMG cells and in Bal-17 B cells)), sequence (P48025 whole entry): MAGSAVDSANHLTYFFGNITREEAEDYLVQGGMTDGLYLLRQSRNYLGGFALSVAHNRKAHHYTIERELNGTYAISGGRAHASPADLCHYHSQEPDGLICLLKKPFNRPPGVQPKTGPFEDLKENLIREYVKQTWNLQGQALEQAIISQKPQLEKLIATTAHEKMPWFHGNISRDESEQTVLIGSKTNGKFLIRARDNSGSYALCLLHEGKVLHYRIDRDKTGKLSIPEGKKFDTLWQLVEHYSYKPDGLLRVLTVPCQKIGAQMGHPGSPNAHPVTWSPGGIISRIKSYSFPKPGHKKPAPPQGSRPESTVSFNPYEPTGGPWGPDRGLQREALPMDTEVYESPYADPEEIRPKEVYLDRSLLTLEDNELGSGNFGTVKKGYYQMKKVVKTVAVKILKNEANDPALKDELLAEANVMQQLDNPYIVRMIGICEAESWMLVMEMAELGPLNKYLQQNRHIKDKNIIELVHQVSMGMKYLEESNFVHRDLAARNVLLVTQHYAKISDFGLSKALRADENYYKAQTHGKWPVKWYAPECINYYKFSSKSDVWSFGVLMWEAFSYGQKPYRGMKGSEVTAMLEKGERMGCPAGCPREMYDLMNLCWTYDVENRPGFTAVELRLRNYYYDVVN
substance,measurement,value
"MMTV Env surface unit (SU or gp52), unmutated envelope (from UniProt P03374 99-454)",percent of SU co-immunoprecipitated with Syk,< 34%
